The target in test [1] is biotinylated human TIM-3 (human) (UniProt Q8TDQ0). Put plainly: competition ELISA: antibody coated, biotinylated human TIM-3 preincubated with competitor 19D11. A general note: ELISA stands for enzyme-linked immunosorbent assay.
The target is the same in test [2]. Put plainly: competition ELISA: antibody coated, biotinylated human TIM-3 preincubated with competitor CH 10#.
Test [3] has the same target. As to the kind of experiment: competition ELISA: antibody coated, biotinylated human TIM-3 preincubated with competitor CH 11#.
Test [4] shares this target. Put plainly: competition ELISA: antibody coated, biotinylated human TIM-3 preincubated with competitor 3E6.
Test [5] has the same target. As to the kind of experiment: competition ELISA: antibody coated, biotinylated human TIM-3 preincubated with competitor MBG453.
The target is the same in test [6]. As to the kind of experiment: competition ELISA: antibody coated, biotinylated human TIM-3 preincubated with competitor 4H2.
Test [7] shares this target. Put plainly: competition ELISA: antibody coated, biotinylated human TIM-3 preincubated with competitor TSR022.
Test [8] has the same target. Put plainly: competition ELISA: antibody coated, biotinylated human TIM-3 preincubated with competitor 16H1.

B1: TSR022 (antibody, INN chains, looked up, V domains shown)
VH: EVQLLESGGGLVQPGGSLRLSCAAASGFTFSSYDMSWVRQAPGKGLDWVSTISGGGTYTYYQDSVKGRFTISRDNSKNTLYLQMNSLRAEDTAVYYCASMDYWGQGTTVTVSS
VL: DIQMTQSPSSLSASVGDRVTITCRASQSIRRYLNWYHQKPGKAPKLLIYGASTLQSGVPSRFSGSGSGTDFTLTISSLQPEDFAVYYCQQSHSAPLTFGGGTKVEIK
As to B1, the inhibit percentage was 0% in test [1]; 40.5% in test [2]; 0% in test [3]; 95.8% in test [4]; 99.1% in test [5]; 98.1% in test [6]. The figures for the inhibit percentage in test [7] and in test [8] were 100% and 70.2%, respectively.

B2: MBG453 (antibody, INN chains, looked up, V domains shown)
VH: QVQLVQSGAEVKKPGSSVKVSCKASGYTFTSYNMHWVRQAPGQGLEWMGDIYPGNGDTSYNQKFKGRVTITADKSTSTVYMELSSLRSEDTAVYYCARVGGAFPMDYWGQGTTVTVSS
VL: AIQLTQSPSSLSASVGDRVTITCRASESVEYYGTSLMQWYQQKPGKAPKLLIYAASNVESGVPSRFSGSGSGTDFTLTISSLQPEDFATYFCQQSRKDPSTFGGGTKVEIKR
For B2, the inhibit percentage was determined as 4.39% in test [1]; 15.8% in test [2]; 8.29% in test [3]; 94.3% in test [4]; 100% in test [5]; 95.9% in test [6]. Besides, the inhibit percentage worked out at 94.8% in test [7] and 99.2% in test [8].

Values taken from patent US20230365685A1.
